The record followed here is paper PMC4876856.

In the assay the target is truncated rabbit TRPV2 (residues 56-560 and 581-721) (rabbit) (UniProt G1SNM3). Nature of the assay: cryo-EM structure.

A word on the stoichiometry N: it is the number of molecules, sites or subunits per partner or assembly.

Substance “truncated rabbit TRPV2 (residues 56-560 and 581-721) (from UniProt G1SNM3 56-560; G1SNM3 581-721) (domain or fragment)” displayed a stoichiometry N of 4.
